Source: patent US20070185028A1, “Compositions and methods for treatment of protein misfolding and protein aggregation diseases” (priority 2004, published 2007)

Key:
[1] = target: T1, α-synuclein (Homo sapiens, UniProt P37840); experiment: α-synuclein fibrillation ThT assay; type: biochemical; conditions: for change of ThT fluorescence of α-synuclein: concentration increased to 46 μM
T1 construct: purchased rPeptide
Procedure: The effect of the five αB crystallin peptides, ST, DR, HG, LT, and ER on as synuclein fibrillation was measured using the ThT fluorescence assay (FIG. 28). The formation and inhibition of α-synuclein fibrils was qualitatively verified by fluorescence and bright-field microscopy. The concentration of the peptides was varied relative to α-synuclein to establish a concentration curve. In addition, the effect of a control neuropeptide (AT1) with no α-synuclein fibril inhibition activity was measured and compared to the effect of the αB crystallin peptides on α-synuclein fibrillation. The ThT fluorescence of 46 μM α-synuclein alone incubated at 37° C. for 96 hrs, increased from ˜9,500 to ˜16,000 RFU. Addition of 9.2 μM αB crystallin peptides ST, DR, HG, LT, and ER decreased the ThT fluorescence of α-synuclein by 32-100%. When the concentration of the αB crystallin peptides was increased to 46 μM, the ThT fluorescence of α-synuclein decreased with the αB crystallin peptides, DR, HG, LT, and ER, while the ThT fluorescence increased with the ST peptide. […] The negative control peptide AT1 had no effect on α-synuclein fibrillation even at a concentration as high as 460 μM. All five αB crystallin peptides inhibited α-synuclein fibrillation at sub-stoichometric and stoichometric concentrations (9.2 μM and 46 μM).
The Thioflavin T (ThT) fluorescence of 46 μM α-synuclein in the presence of varying concentrations of αB crystallin peptides and controls was measured. […] When the concentration of the peptides was increased to […] (1:1::peptide:α-synuclein), the αB crystallin peptides DR, HG, LT and ER decreased the ThT fluorescence by 51-100%, while the ST peptide had no effect on ThT fluorescence. When the concentration of the peptides was increased further to […] (10:1::peptide:α-synuclein), the five αB crystallin peptides decreased the ThT fluorescence by 40-100%. […] The formation and inhibition of β2-microglobulin fibrils was verified microscopically.
α-synuclein fibrillation ThT assays were performed as described previously. Zhu et al., J Biol Chem 279:26846-57, 2004; Dedmon et al., J Biol Chem 280:14733-40, 2005. Peptides were dissolved to 2 mM in 0.25% DMSO and diluted accordingly, while α-synuclein was dissolved in 20 mM Tris-Cl, 100 mM NaCl, pH 7.4. For the 5:1::peptide: α-synuclein assay, 5 μL of 700 μM peptide or APS was mixed with 5 μL of 140 μM α-synuclein, 17 μt of 20 mM Tris-Cl, 100 mM NaCl, pH 7.4 and 3 μL of 1 mM ThT. For the 1:1::peptide:α-synuclein assay, 5 μL of 140 μM peptide was mixed with 5 μL of 140 μM α-synuclein, 17 μl of 20 mM Tris-Cl, 100 mM NaCl, pH 7.4 and 3 μL of 1 mM ThT. For the 1:5::peptide:α-synuclein assay, 5 μL of 28 μM peptide was mixed with 5 μL of 140 μM α-synuclein, and […] of 20 mM Tris-Cl, 100 mM NaCl, pH 7.4 and 3/L of 1 mM ThT. ThT fluorescence was measured using a Perkin Elmer Victor^3 V plate reader. Assays were performed in 384-well fluorescence plates in duplicates or triplicates. Samples were incubated at 37° C. for a total of 96 hours. ThT fluorescence was measured at 0, 24, 48, and 96 hours. The effect of the peptides and APS was calculated as percentage fibril formation relative to α-synuclein alone (100%) at the end of 96 hours.

[2] = test system: bovine βH crystallin; experiment: αB crystallin protein pin array with βH crystallin; type: binding; conditions: unheated βH crystallin, 23° C.; similar maxima pre-heated 45° C.
From the text: Synthesis of Pins, binding and detection of peptides binding to ligand proteins. The αB crystallin protein pin array was used to measure the interaction between peptides and chaperone target proteins including bovine βH crystallin, human γD crystallin, equine alcohol dehydrogenase (ADH) and porcine citrate synthase (CS) as described (FIG. 12). Ghosh and Clark, Protein Sci 14: 684-95, 2005.
Refer to the methods section for detailed protocols. The absorbance corresponding to the blue coloration in each well was measured at λ=450 nm and plotted against the amino acid sequence of the corresponding peptide in that well (FIGS. 13 and 14). Wells containing peptides that have strong interactions with target proteins are dark blue and wells containing peptides that have weak or no interaction with target proteins are light blue or clear.
The purity of the target proteins used in the pin array assays, bovine βH crystallin, human γD crystallin, equine alcohol dehydrogenase (ADH) and porcine citrate synthase (CS) were determined to be >90% by SDS-PAGE. In addition, primary antibodies for each target protein were specific to that target protein and consequently contaminating proteins that may bind to the peptides will not be detected. Eighty-four sequential and overlapping peptide fragments corresponding to residues 1-175 of human αB crystallin were synthesized employing a simultaneous peptide synthesis strategy developed by Geysen, called Multipin Peptide Synthesis (Mimotopes, San Diego, Calif.). Geysen, Southeast Asian J Trop Med Public Health 21: 523-33, 1990; Chin et al., J Org Chem 62: 538-539, 1997. Peptides were immobilized on derivatized polyethylene pins arranged in a microtiter ELISA plate format. Each peptide was eight amino acids in length and consecutive peptides were offset by two amino acids. All peptides were bound covalently to the surface of the plastic pins. The first peptide was 1MDIAIHHP8 and the last peptide was 168PAVTAAPK175 for human αB crystallin.
Ghosh and Clark, Protein Sci 14: 684-95, 2005. […] The intensity of the blue color in the wells was measured at 450 nm using an ELISA plate-reader (BioTek, Winooski, Vt.). The intensity of the blue color (plotted on the X-axis) was a measure of the interaction between αB crystallin peptides (plotted on the Y-axis) and target proteins. To measure the effect of temperature on the interactions between interactive peptides and the target proteins, the target proteins were heated in a water-bath at 45° C. for fifteen minutes prior to use. Pin arrays are unable to differentiate between monomers, dimers or oligomers of target proteins that exist in solution. Instead, pin arrays are very sensitive detectors of interactions between individual peptides and the entire population (monomers, dimers or oligomers) of specific target proteins that may exist in solution under specific conditions. Each target protein was assayed two to five times. A single pin array was used for all experiments and no change in interactions was observed after more than thirty repetitions. The last three peptides of the protein pin array, 163REEKPAVT170, 165EKPAVTAA172, 167PAVTAAPK174, correspond to the epitope (163REEKPAVTAAPKK175) recognized by the primary antibody for human αB crystallin. A positive reaction is observed for these three peptides in the absence of human αB crystallin as the ligand due to direct binding of the anti-human αB crystallin antibody to these three peptides. The loss of efficiency for the pin array was measured using this assay. The loss of efficiency for the pin array was determined to be <5% by after more than 30 assays.
Protein pin arrays enabled the identification of interactive sequences necessary for the chaperone activity of human αB crystallin. Interactions between immobilized 8-mer human αB crystallin peptides and unheated and pre-heated βH crystallin, a natural protein constitute of lens cells, were measured as absorbances at λ=450 nm at 23° C. […]

| Sequence | change of ThT fluorescence of α-synuclein [1] | absorbance at 450 nm, interaction with βH crystallin [2] | further results |
| --- | --- | --- | --- |
| DRFSVNLDVKHFS | decreased | – | effect on α-synuclein fibril formation, overall [1]: most effective inhibitor |
| HGKHEERQDE | decreased | – | effect on α-synuclein fibril formation, overall [1]: most effective inhibitor |
| FSVNLDVK [Peptide 38] | – | Maximum absorbances | – |
| WIRRPFFP [Peptide 5] | – | Maximum absorbances | – |
| LTITSSLS [Peptide 66] | – | Maximum absorbances | – |

Now from value to sequence, other results behind:

| change of ThT fluorescence of α-synuclein [1] | Sequence | absorbance at 450 nm, interaction with βH crystallin [2] | further results |
| --- | --- | --- | --- |
| decreased | ERTIPITRE | – | – |
| decreased | LTITSSLSSDGV | – | – |
| increased | STSLSPFYLRPPSFLRAP | – | decrease in ThT fluorescence of α-synuclein ([1]; 16 μM (1:1::peptide:α-synuclein) as printed): no effect |
